From patent publication US7063843 (OKLAHOMA MEDICAL RESEARCH FOUNDATION, dated 2006)

How the values were obtained:
[1] = molecular target: T1, 125I-labeled activated protein C (human, UniProt P04070 43-197; P04070 212-461, radioiodinated with Na[125I] by Iodogen; positions not stated); assay: 125I-APC binding to HUVEC monolayers at 4 C, Scatchard analysis
T1 construct: Specific activity 1x10^4 cpm/ng
Experimental: At the indicated times, cells were washed and bound radioactivity was measured. […] After washing, bound radioactivity was measured. […] Specific binding was determined as described below.
Monolayers of HUVEC in 24-well microplates (Costar) (1×10⁵ cells per well) were washed twice with EDTA/PBS and once with ice-cold HBSS. […] After washing three times with ice-cold HBSS, cells were released with the EDTA buffer, and the bound radioactivity was measured in a gamma counter (Isodata 500). To determine non-specific, calcium-independent adsorption of radioactivity, the cells were washed with EDTA/PBS and residual radioactivity in the cell pellet was measured. Non-specific binding of radioactivity was consistently less than 5% of the specific binding. The data was analyzed using the Enzfitter program (Elsevier Biosoft, Cambridge, U.K.).

human protein C = molecular target: T2, human protein C (human, UniProt P04070 43-461); assay: summary statement; the direct measurement was 125I-APC on HUVEC, and protein C displaced F1-APC equivalently to APC
T2 construct: also called PC
T2 sequence (P04070 43-461): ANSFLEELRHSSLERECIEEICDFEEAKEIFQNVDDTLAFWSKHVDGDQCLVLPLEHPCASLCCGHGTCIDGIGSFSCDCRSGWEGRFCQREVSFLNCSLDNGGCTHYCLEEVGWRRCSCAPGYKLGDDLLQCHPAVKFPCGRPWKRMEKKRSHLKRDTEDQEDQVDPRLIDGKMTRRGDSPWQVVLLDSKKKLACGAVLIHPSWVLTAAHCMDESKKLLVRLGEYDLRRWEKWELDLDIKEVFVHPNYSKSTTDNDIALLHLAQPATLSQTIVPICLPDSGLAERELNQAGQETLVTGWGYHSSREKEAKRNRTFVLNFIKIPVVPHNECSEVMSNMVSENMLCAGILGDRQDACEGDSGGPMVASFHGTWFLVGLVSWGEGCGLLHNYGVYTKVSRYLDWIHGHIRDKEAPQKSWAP

T1 sequence (P04070 43-197, chain 1 of 2): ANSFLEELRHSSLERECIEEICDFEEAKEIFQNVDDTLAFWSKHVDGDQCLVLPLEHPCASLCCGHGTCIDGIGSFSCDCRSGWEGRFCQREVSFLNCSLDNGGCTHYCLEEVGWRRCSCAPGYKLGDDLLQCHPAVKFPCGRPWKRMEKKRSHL
T1 sequence (P04070 212-461, chain 2 of 2): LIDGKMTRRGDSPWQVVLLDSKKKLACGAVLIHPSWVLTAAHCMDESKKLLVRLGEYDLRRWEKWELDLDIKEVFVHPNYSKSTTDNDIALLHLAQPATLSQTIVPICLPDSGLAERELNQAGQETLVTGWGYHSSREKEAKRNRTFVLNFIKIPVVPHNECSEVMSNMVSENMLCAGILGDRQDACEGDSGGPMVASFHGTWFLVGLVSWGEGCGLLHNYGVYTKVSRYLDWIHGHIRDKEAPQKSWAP

B1: endothelial cell protein C/activated protein C receptor (EPCR), human (receptor)
chain: FCSQDASDGLQRLHMLQISYFRDPYHVWYQGNASLGGHLTHVLEGPDTNTTIIQLQPLQEPESWARTQSGLQSYLLQFHGLVRLVHQERTLAFPLTIRCFLGCELPPEGSRAHVFFEVAVNGSSFVSFRPERALWQADTQVTSGVVTFTLQQLNAYNRTRYELREFLEDTCVQYVQKHISAENTKGSQTSRSYTSLVLGVLVGGFIIAGVAVGIFLCTGGRRC
notes: also called EPCR-1 (clone)
B1 gave a Kd [1] of 30 nM and a Kd (human protein C) of 30 nM.
